Changes are numbered by the printed parent chain.
Key:
[1] = test system: T1, B domain deleted FVIII (BDD FVIII), unmutated
T1 sequence: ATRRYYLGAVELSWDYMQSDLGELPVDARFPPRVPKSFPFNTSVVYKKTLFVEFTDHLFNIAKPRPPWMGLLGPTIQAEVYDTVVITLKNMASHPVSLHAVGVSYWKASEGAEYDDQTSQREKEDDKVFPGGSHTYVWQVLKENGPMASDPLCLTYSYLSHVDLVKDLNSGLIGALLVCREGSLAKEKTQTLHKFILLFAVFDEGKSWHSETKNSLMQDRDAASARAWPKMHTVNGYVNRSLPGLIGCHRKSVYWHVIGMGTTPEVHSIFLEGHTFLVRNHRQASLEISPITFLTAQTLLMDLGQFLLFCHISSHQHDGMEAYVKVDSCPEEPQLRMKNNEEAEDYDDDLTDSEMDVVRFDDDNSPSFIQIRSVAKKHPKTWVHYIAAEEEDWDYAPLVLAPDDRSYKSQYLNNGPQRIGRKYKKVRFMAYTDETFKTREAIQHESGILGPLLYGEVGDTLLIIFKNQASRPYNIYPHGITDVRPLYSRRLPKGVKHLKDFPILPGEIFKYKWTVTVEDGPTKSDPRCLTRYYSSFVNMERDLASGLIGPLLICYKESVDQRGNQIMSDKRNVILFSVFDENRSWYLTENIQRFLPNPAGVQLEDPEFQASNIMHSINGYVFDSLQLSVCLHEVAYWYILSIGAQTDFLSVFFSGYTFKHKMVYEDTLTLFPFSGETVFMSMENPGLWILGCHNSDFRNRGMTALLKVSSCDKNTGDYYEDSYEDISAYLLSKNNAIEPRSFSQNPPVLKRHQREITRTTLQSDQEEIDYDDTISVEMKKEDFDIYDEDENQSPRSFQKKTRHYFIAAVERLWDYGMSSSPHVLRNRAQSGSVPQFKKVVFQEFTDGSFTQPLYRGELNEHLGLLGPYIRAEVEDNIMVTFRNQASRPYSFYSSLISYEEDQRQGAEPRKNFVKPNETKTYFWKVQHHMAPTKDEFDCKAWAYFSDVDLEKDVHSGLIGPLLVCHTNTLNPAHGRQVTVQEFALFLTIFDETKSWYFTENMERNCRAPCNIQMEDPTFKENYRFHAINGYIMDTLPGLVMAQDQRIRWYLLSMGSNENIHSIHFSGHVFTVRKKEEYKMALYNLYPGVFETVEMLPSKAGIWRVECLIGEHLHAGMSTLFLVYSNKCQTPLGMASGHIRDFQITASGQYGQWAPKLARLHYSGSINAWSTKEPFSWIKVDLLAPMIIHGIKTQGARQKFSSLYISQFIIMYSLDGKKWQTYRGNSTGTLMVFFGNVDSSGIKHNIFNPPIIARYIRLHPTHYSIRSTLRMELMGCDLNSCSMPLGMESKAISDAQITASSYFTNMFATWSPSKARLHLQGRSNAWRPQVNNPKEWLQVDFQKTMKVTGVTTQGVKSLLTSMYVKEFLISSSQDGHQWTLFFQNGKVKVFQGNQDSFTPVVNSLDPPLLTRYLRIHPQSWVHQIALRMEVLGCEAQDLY

[2] = test system: T2, BDD FVIII mutein S2094C
T2 sequence: T1 sequence with L986F, S1200C

thrombin (Haematologic Technologies, Essex Junction, Vt.)
thrombin cleavage, SDS-PAGE with silver staining [1]: Thrombin digestion of the muteins and control produced the expected cleavage fragments. | thrombin cleavage, SDS-PAGE with silver staining [2]: Thrombin digestion of the muteins and control produced the expected cleavage fragments.
